Test results taken from paper PMC3408589 (Chemistry & biology, 2012).

Molecular target: the molecule itself
Experiment: cross-linking

B1: untagged human ribonucleotide reductase α expressed in COS-1 cells (monocistronic cassette) (enzyme, UniProt P23921 1-792, looked up)
chain: MHVIKRDGRQERVMFDKITSRIQKLCYGLNMDFVDPAQITMKVIQGLYSGVTTVELDTLAAETAATLTTKHPDYAILAARIAVSNLHKETKKVFSDVMEDLYNYINPHNGKHSPMVAKSTLDIVLANKDRLNSAIIYDRDFSYNYFGFKTLERSYLLKINGKVAERPQHMLMRVSVGIHKEDIDAAIETYNLLSERWFTHASPTLFNAGTNRPQLSSCFLLSMKDDSIEGIYDTLKQCALISKSAGGIGVAVSCIRATGSYIAGTNGNSNGLVPMLRVYNNTARYVDQGGNKRPGAFAIYLEPWHLDIFEFLDLKKNTGKEEQRARDLFFALWIPDLFMKRVETNQDWSLMCPNECPGLDEVWGEEFEKLYASYEKQGRVRKVVKAQQLWYAIIESQTETGTPYMLYKDSCNRKSNQQNLGTIKCSNLCTEIVEYTSKDEVAVCNLASLALNMYVTSEHTYDFKKLAEVTKVVVRNLNKIIDINYYPVPEACLSNKRHRPIGIGVQGLADAFILMRYPFESAEAQLLNKQIFETIYYGALEASCDLAKEQGPYETYEGSPVSKGILQYDMWNVTPTDLWDWKVLKEKIAKYGIRNSLLIAPMPTASTAQILGNNESIEPYTSNIYTRRVLSGEFQIVNPHLLKDLTERGLWHEEMKNQIIACNGSIQSIPEIPDDLKQLYKTVWEISQKTVLKMAAERGAFIDQSQSLNIHIAEPNYGKLTSMHFYGWKQGLKTGMYYLRTRPAANPIQFTLNKEKLKDKEKVSKEEEEKERNTAAMVCSLENRDECLMCGS
- stoichiometry N: 6
